Measurements reported in patent US20250161428A1, “PREVENTING/TREATING PSEUDOMONAS AERUGINOSA INFECTION” (priority 2022, published 2025).

B1: 3C4: mouse IgG2b monoclonal antibody to the A-PS terminus; VH SEQ ID NO: 22, VL SEQ ID NO: 26 (antibody, V domains shown)
VH: EVKLVESGGGLVQPGGSLRLSCATSGFTFTDYYMSWVRQPPGKALEWLGFIRNKANGYTTEYSASVKGRFTISRDNSQSILYLQMNTLRAEDSATYYCTRAIYYGYDGFAYWGQGTLVTVSA
VL: DAVMTQTPLSLPVSLGDQASISCRSSQSLENSNGNTYLNWYLQKPGQSPQLLIYRVSNRFSGVLDRFSGSGSGTDFTLKISRVEAEDLGVYFCLQVTHVPFTFGSGTKLEIK
B2: 1B1: mouse IgM monoclonal antibody to the A-PS terminus; VH SEQ ID NO: 4, VL SEQ ID NO: 8 (antibody, V domains shown)
VH: DVKLVESGGGLVKVGGSLKISCAASGFPFSDYYMAWVGQTPEKRLELVAAINGDGGTTYYPDTVKGRFIISRDNAKNTLYLQMSSLRSEDTALYYCVRGRRITGTGAIDYWGQGTSVTVSS
VL: QIFLTQSPVILSASPGEKVTMTCSATSNISYMYRYQQKPGSSPKPWIYGTSNLASRVPARFSGSGSGTSYSLTISNMEAEDAATYYCQIYHSYPYTFGGGTKLEIK

Legend:
[1] = system: killed whole cells of P. aeruginosa strains; assay: ELISA binding of mAbs to killed whole cells; details: for range of P. aeruginosa strains recognised: summary statement, serotype strains and clinical isolates
Description: FIGS. 11A, 11B, and 11C show ELISA analysis of binding of 1B1 (FIG. 11A), 3B8 (FIG. 11B), and 3C4 (FIG. 11C) purified monoclonal antibodies (mAbs) (all at 100 μg/ml) to killed whole cells of P. aeruginosa strains NRCC #'s 6678, 6668-70, 6954-60 and negative control strains M. catarrhalis 6541 and N. meningitidis 6263 (see Table 1 for full details of strains).
(§1) ELISA: The binding of anti-P. aeruginosa A-band terminal epitope mAbs and polyclonal sera to BSA conjugates, purified LPS and to whole cells was evaluated by ELISA as described previously.

purified PAO1 LPS = assay: mAb competition ELISA; assay type: binding, P. aeruginosa; details: PAO1 LPS coated plates; 3C4 at 62.5 μg/ml
Description: The plate was washed and mAb 3C4 was added at a constant concentration (62.5 μg/ml). A secondary mAb specific for mAb 3C4 was added and absorbance was measured after a colour reagent was added (line with square markers). The absorbance obtained when 3C4 was added to the plate without 1B1 competition is shown by the line with a triangle marker.
The plate was washed and mAb 3C4 was added at a constant concentration (62.5 μg/ml). A secondary mAb specific for mAb 3C4 was added and absorbance was measured after a colour reagent was added (line with square markers). The absorbance obtained when 3C4 was added to plate without 3B8 competition is shown by the line with a triangle marker.
mAb competition ELISA: Wells of Nunc Maxisorp EIA plates were coated with 1 μg of P. aeruginosa LPS in PBS overnight at 4° C. and then brought to RT before use. Plates were blocked with 1% BSA-PBS for 1 h at RT, and then wells were washed with PBS-T. One mAb (1B1 or 3B8) was titrated and added to the plate for 1 h at RT. Following washing with PBS-T, the second mAb (3C4) was added at a pre-determined concentration and allowed to incubate for 1 h at RT. Following washing with PBS-T, AP-labeled goat anti-mouse IgG2b (Southern Biotech) specific for mAb 3C4, diluted 1:250 in 1% BSA-PBS was added for 1 h at RT. The plates were then washed with PBS-T and developed with Phosphatase Substrate System (Kirkegaard and Perry Laboratories). After 60 min absorbance was measured at 405 nm using a microtiter plate reader.

[2] = system: purified LPS antigens of P. aeruginosa strains; assay: ELISA binding of mAbs to purified LPS
Description: as §1

Row | Molecule | range of P. aeruginosa strains recognised [1] | epitope relation in competition ELISA with mAb 3C4 (purified PAO1 LPS) | recognition of purified LPS from A-band locus mutants PAO1 (wzy::Gm)(Δpa5457) and PAO1 (wzy::Gm)(Δpa5458) [2] | cross reactivity to a set of clinical isolates ([1]; killed whole cells, purified mAbs at 100 μg ml^−1) | cross reactivity to killed whole cells of A-band locus mutants and ATCC type strains of common clinical serotypes ([1]; purified mAbs at 100 μg/ml)
1 | B1 | recognition restricted to the wt serotype 5 strains PAO1 BAA-47 and 5937 | recognised similar overlapping epitopes | – | – | –
2 | B2 | majority of P. aeruginosa strains tested were recognised | recognised a unique epitope compared to 3C4 | could recognise | broad cross reactivity | the only mAb that was cross reactive
